According to US20140235820A1, “METHODS AND COMPOSITIONS FOR MODULATING THE Wnt PATHWAY” (Genentech, Inc., priority 2010, published 2014):

How the values were obtained:
LRP6 E2 = molecular target: T1, LRP6 E2 (Homo sapiens, UniProt O75581); experiment: Biolayer interferometry binding to LRP6 E2
T1 construct: construct E2-amino acids D235-E631 of LPR6; made in house; host or cells: Tni insect cells (baculovirus, secreted)
T1 sequence (O75581 325-631 limits assumed): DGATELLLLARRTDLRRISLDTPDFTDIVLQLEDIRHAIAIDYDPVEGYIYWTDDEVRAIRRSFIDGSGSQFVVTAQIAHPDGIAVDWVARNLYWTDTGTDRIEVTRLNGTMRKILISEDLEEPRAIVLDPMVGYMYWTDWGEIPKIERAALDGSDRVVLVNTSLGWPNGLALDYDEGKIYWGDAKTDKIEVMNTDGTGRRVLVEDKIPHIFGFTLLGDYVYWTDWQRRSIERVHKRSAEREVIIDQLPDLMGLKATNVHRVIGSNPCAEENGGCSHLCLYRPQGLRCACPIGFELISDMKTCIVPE
Experimental: (§1) Binding kinetics were measured by biolayer interferometry using an Octet Red instrument (ForteBio) as previously described (11). Streptavidin (SA) biosensors were loaded with biotinylated hLRP6 in 50 mMTris, pH 8, 300 mM NaCl, 5% (v/v) glycerol, and 0.05% (w/v) Triton X-100. The loaded biosensors were washed in the same buffer before carrying out association and dissociation measurements for the indicated times. The Kd of each interaction was determined using steady state-analysis through the Octet Red software v6.3. Each reported value represents an average of three or more experiments at different concentrations, with a fitted experimental curve for which the square of the correlation coefficient (R^2) is above 0.96.
The interaction of the different Dkks and sclerostin with various domains of LRP6 was measured using a biolayer interferometry assay (11). Purified receptors contained individual β-propeller-EGF-like units (E1, E2, or E4), two β-propellers (E1E2 or E3E4), or four β-propellers (E1E4))—as follows:
Human LRP6: construct E1E4-amino acids A20-Q1253 of LPR6; construct E1E2-amino acids A20-E631 of LPR6; construct E3E4 amino acids E631-Q1253 of LPR6; construct E1-amino acids A20-D325 of LPR6; construct E2-amino acids […]-E631 of LPR6; construct E4-T933-Q1253. The individual LRP6 β-propeller E3 could not be expressed.

LRP6 = experiment: Competition binding between Dkk1 and other Wnt pathway inhibitors (preloaded Dkk1); parameters: species or system human; conditions: Dkk1 100 nM preloaded, test ligand 100 nM
Experimental: FIG. 8. Competition binding between Dkk1 and other Wnt pathway inhibitors. The indicated LRP6 construct was preloaded onto biosensor tips. Dkk1 (100 nM) (or buffer control) and the test ligand (100 nM) were loaded sequentially onto the LRP6 tips. (A) Dkk2 competition with Dkk1. (B) Sclerostin competition with Dkk1. Percent binding in the presence of Dkk1 is shown relative to buffer control.
as §1
To assess whether Dkk1, Dkk2, and sclerostin might bind to the same site on LRP6 E1, Dkk2 or sclerostin binding was measured in the presence of preloaded Dkk1 (100 nM). […]

[1] = molecular target: T2, Wnt3a binding to LRP6 E1E4 (Homo sapiens, UniProt O75581); experiment: Wnt3a binding to LRP6 E1E4 in presence of inhibitor; conditions: inhibitor 125 nM, Wnt 125 nM
T2 construct: construct E1E4-amino acids A20-Q1253 of LPR6; made in house; host or cells: Tni insect cells (baculovirus, secreted)
T2 sequence (O75581 20-1253): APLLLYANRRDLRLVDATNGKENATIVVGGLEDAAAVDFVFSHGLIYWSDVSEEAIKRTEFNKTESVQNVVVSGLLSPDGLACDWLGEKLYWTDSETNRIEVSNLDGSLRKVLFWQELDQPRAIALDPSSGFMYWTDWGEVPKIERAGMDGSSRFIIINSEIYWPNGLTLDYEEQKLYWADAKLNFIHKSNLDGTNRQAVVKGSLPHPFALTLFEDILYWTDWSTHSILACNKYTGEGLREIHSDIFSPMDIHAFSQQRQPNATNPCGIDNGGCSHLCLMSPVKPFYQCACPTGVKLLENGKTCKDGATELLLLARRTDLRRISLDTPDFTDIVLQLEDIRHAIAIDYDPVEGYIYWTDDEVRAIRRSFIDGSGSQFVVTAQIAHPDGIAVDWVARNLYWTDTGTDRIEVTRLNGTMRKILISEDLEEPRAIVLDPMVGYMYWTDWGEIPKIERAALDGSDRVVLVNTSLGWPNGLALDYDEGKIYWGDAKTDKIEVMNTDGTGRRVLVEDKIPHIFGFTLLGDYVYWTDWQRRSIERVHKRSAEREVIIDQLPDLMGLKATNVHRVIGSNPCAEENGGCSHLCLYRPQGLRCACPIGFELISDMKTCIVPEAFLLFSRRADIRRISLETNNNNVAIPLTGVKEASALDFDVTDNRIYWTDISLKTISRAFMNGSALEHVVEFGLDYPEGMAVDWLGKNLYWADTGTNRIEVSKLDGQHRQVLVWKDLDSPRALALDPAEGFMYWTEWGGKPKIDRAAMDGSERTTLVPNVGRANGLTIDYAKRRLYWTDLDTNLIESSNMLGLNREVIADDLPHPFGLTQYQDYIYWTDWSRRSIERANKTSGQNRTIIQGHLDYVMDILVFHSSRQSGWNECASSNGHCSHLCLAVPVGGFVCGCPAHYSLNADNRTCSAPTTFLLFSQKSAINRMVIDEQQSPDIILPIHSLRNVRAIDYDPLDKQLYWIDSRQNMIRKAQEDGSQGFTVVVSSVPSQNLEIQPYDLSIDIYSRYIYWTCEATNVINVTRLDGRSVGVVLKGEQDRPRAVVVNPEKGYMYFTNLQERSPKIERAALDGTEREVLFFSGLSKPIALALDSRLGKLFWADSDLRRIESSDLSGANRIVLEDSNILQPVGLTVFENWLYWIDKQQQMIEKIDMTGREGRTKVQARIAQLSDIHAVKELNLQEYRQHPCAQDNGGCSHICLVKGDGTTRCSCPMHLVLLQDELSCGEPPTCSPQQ
Experimental: (§2) FIG. 11. Wnt binding to LRP6 E1E4 in the presence or absence of Dkk1 or sclerostin.
as §1
(§3) Wnt9b also binds to the E1E2 region but not to the E3E4 region (11). Accordingly, sclerostin inhibits Wnt9b binding to LRP6 E1E4 (FIG. 11). […] Accordingly, Dkk1 inhibits the binding of both Wnt3a and Wnt9b to LRP6 E1E4 (FIG. 11).

[2] = molecular target: T3, Wnt9b binding to LRP6 E1E4 (Homo sapiens, UniProt O75581); experiment: Wnt9b binding to LRP6 E1E4 in presence of inhibitor; conditions: inhibitor 125 nM, Wnt 125 nM
T3 construct: construct E1E4-amino acids A20-Q1253 of LPR6; made in house; host or cells: Tni insect cells (baculovirus, secreted)
T3 sequence (O75581 20-1253): T2 sequence (O75581 20-1253)
Experimental: as §2, §1, §3

| Substance | binding to LRP6 E2 (in words) (LRP6 E2) | binding to LRP6 in the presence of preloaded Dkk1 (LRP6) | inhibition of Wnt3a binding to LRP6 E1E4 [1] | inhibition of Wnt9b binding to LRP6 E1E4 [2] |
| --- | --- | --- | --- | --- |
| sclerostin: Sclerostin protein, Wnt pathway inhibitor, expressed in insect cells (LPNAIGR) | very weak or non-specific binding | very strongly inhibited | unable to inhibit | inhibits |
| Dkk1: Dickkopf 1 protein, Wnt pathway inhibitor, expressed in insect cells (NSNAIKN) | Partial binding |  | inhibits | inhibits |
